Data published in patent publication US20210308031.

Assays:
[1] = tested on: Unhydroxylated collagen purified from strain PP434 (vector MMV411)
[2] = tested on: (Pro-Pro-Gly)10 peptide model substrate

AB fusion protein with the His tag (P4HA1 at the N-terminus, GSGSGS linker, P4HB at the C-terminus, six histidines), encoded by plasmid MMV502
% Hydroxyproline (in vitro hydroxylation, 5 uM enzyme, 2 uM collagen, 32 C, 1 hour); enzyme from strain PP547 [1]: 34.8%
% Hydroxyproline (in vitro hydroxylation, 5 uM enzyme, 2 uM collagen, 32 C, 1 hour); enzyme from strain PP635 [1]: 26.6%
alpha-ketoglutaric acid consumption over time [2]: there was less a ketoglutaric acid in the sample with the AB fusion protein than the sample with native P4HA and P4HB proteins
